Patent publication US20140348785A1

What was measured:
[1] = biological target: biotinylated gp41 MPER peptide RRR-(656-683)-RRK-biotin (HIV-1); test: SPR: biotinylated MPER peptide on an SA chip, Fab as analyte, 1:1 Langmuir fit
[2] = biological target: soluble gp41 MPER peptide RRR-(656-683)-RRR (HIV-1); test: SPR: variant IgG captured on an anti-human IgG chip, MPER peptide as analyte

Binder | Kd [1] | fold decrease in affinity relative to wild type 10E8 [2]
10E8 Fab (antigen binding fragment of 10E8) (Fab, V domains shown) VH: EVQLVESGGGLVKPGGSLRLSCSASGFDFDNAWMTWVRQPPGKGLEWVGRITGPGEGWSVDYAAPVEGRFTISRLNSINFLYLEMNNLRMEDSGLYFCARTGKYYDFWSGYPPGEEYFQDWGRGTLVTVSS VL: SYELTQETGVSVALGRTVTITCRGDSLRSHYASWYQKKPGQAPILLFYGKNNRPSGVPDRFSGSASGNRASLTISGAQAEDDAEYYCSSRDKSGSRLSVFGGGTKLTVL | 17 nM | 
10E8 IgG alanine variant E53A (heavy chain, Kabat) (antibody, V domains shown) VH: EVQLVESGGGLVKPGGSLRLSCSASGFDFDNAWMTWVRQPPGKGLEWVGRITGPGAGWSVDYAAPVEGRFTISRLNSINFLYLEMNNLRMEDSGLYFCARTGKYYDFWSGYPPGEEYFQDWGRGTLVTVSS VL: SYELTQETGVSVALGRTVTITCRGDSLRSHYASWYQKKPGQAPILLFYGKNNRPSGVPDRFSGSASGNRASLTISGAQAEDDAEYYCSSRDKSGSRLSVFGGGTKLTVL |  | 60 fold
